Data as given in patent US20260139061A1 (Novartis, published 2026).

The binders below were run against T1, EGFRvIII-Fc fusion protein (UniProt P00533 25-645) (assay: flow cytometry, Jurkat E6 cells electroporated with the CAR vector, stained with different concentrations of Fc fusion protein and PE anti-human IgG Fc).
T1 construct: Soluble reagent used at different concentrations to stain CAR-transfected Jurkat cells; not shown: Fc part; detected with PE anti-human IgG Fc
Method: Jurkat E6 cells were electroporated with either CAR9 vector or CAR10 vector using Amaxa Cell Line Nucleofector Kit V (Lonza, Colgne AG, Germany) and program X-001. One day after the transfection, 0.5×10⁶ cells were placed into each well of a V-shape 96 well plate (Greiner Bio-One, Germany) in 0.2 ml FACS buffer (DPBS buffer containing 5% FBS) and incubated for 10 minutes at room temperature. Cells were then spun down and resuspended in 0.2 ml of the FACS buffer with different concentrations of EGFRvIII-Fc or EGFRwt-Fc and incubated at 4° C. for 30 minutes. Cells were then washed with FACS buffer three times, and incubated with 0.2 ml of the FACS buffer with 2 μl of PE anti-human IgG Fc (Jackson ImmunoResearch Laboratories, West Grove, PA) for 30 minutes at 4° C. in the dark. After washing with 0.2 ml of FACS buffer three times, cells were analyzed on a LSRII (BD Biosciences, San Jose, CA) machine using the FACSDiva software (BD Biosciences, San Jose, CA). Immunofluorescence staining was analyzed as the relative log fluorescence of live cells, and the percentage of the PE positive cells were measured.

| fold lower binding compared to CAR9 | Binder |
| --- | --- |
| ~40 fold | CAR10 (Anti-EGFRvIII clone 139), full CAR on cells (other, Chimeric antigen receptor (139 scFv, CD8 hinge and TM, 4-1BB, CD3 zeta) on Jurkat, JNL or primary human T cells; also called human CAR10) DIQMTQSPSSLSASVGDRVTITCRASQGIRNNLAWYQQKPGKAPKRLIYAASNLQSGVPSRFTGSGSGTEFTLIVSSLQPEDFATYYCLQHHSYPLTSGGGTKVEIKRTGSTSGSGKPGSGEGSEVQVLESGGGLVQPGGSLRLSCAASGFTFSSYAMSWVRQAPGKGLEWVSAISGSGGSTNYADSVKGRFTISRDNSKNTLYLQMNSLRAEDTAVYYCAGSSGWSEYWGQGTLVTVSSTTTPAPRPPTPAPTIASQPLSLRPEACRPAAGGAVHTRGLDFACDIYIWAPLAGTCGVLLLSLVITLYCKRGRKKLLYIFKQPFMRPVQTTQEEDGCSCRFPEEEEGGCELRVKFSRSADAPAYKQGQNQLYNELNLGRREEYDVLDKRRGRDPEMGGKPRRKNPQEGLYNELQKDKMAEAYSEIGMKGERRRGKGHDGLYQGLSTATKDTYDALHMQALPPR |

Each binder was assayed against T2, human EGFRvIII (epidermal growth factor receptor variant III), expressed on cells (human, UniProt P00533 25-1210) (assay: flow cytometry (FACS), purified His-tagged scFv on HEK293F cells transiently transfected with hEGFRvIII).
T2 construct: whole, on cells; also called hEGFRvIII; hEGFRvII
Method: HEK293F suspension cells were transiently transfected with either wild type hEGFR or hEGFRvII and were harvested 2 days after transfection. Approximately 5e5 cells/per well were transferred to a BD Falcon 96 well plate. The cells were spun down at 900 rpm (Sorval Legend XT centrifuge) for 3 minutes. The supernatant was removed. Anti-EGFRvII scFv protein samples were diluted in DPBS with 5% FBS. The samples were added into the wells, mixed and incubated for 1 hour. The cells were washed twice in the DPBS with 5% FBS. The cells were incubated with anti-poly His PE (R&D) for 1 hour, washed twice before FACS analysis (LSRII from BD Biosciences).

| binding result | Binder |
| --- | --- |
| binds | CAR1 Soluble scFv (scFv, Soluble His-tagged humanized scFv; also called humanized EGFRvIII scFv variant, VH1-VK4, 4G4S) scFv: EIQLVQSGAEVKKPGATVKISCKGSGFNIEDYYIHWVQQAPGKGLEWMGRIDPENDETKYGPIFQGRVTITADTSTNTVYMELSSLRSEDTAVYYCAFRGGVYWGQGTTVTVSSGGGGSGGGGSGGGGSGGGGSDVVMTQSPDSLAVSLGERATINCKSSQSLLDSDGKTYLNWLQQKPGQPPKRLISLVSKLDSGVPDRFSGSGSGTDFTLTISSLQAEDVAVYYCWQGTHFPGTFGGGTKVEIKGSHHHHHHHH |
| binds | CAR4 - Soluble scFv (scFv, Soluble His-tagged humanized scFv; also called humanized EGFRvIII scFv variant, VK2-VH5, 4G4S) scFv: DVVMTQSPLSLPVTLGQPASISCKSSQSLLDSDGKTYLNWLQQRPGQSPRRLISLVSKLDSGVPDRFSGSGSGTDFTLKISRVEAEDVGVYYCWQGTHFPGTFGGGTKVEIKGGGGSGGGGSGGGGSGGGGSEIQLVQSGAEVKKPGESLRISCKGSGFNIEDYYIHWVRQMPGKGLEWMGRIDPENDETKYGPIFQGHVTISADTSINTVYLQWSSLKASDTAMYYCAFRGGVYWGQGTTVTVSSGSHHHHHHHH |
| binds | CAR 3 - Soluble scFv (scFv, Soluble His-tagged humanized scFv; also called humanized EGFRvIII scFv variant, VH5-VK2, 4G4S) scFv: EIQLVQSGAEVKKPGESLRISCKGSGFNIEDYYIHWVRQMPGKGLEWMGRIDPENDETKYGPIFQGHVTISADTSINTVYLQWSSLKASDTAMYYCAFRGGVYWGQGTTVTVSSGGGGSGGGGSGGGGSGGGGSDVVMTQSPLSLPVTLGQPASISCKSSQSLLDSDGKTYLNWLQQRPGQSPRRLISLVSKLDSGVPDRFSGSGSGTDFTLKISRVEAEDVGVYYCWQGTHFPGTFGGGTKVEIKGSHHHHHHHH |

Further lines, the binder ahead of its results:

| Binder | binding result |
| --- | --- |
| CAR5 - Soluble scFv (scFv, Soluble His-tagged humanized scFv; also called humanized EGFRvIII scFv variant, VH1-VK2, 4G4S) scFv: EIQLVQSGAEVKKPGATVKISCKGSGFNIEDYYIHWVQQAPGKGLEWMGRIDPENDETKYGPIFQGRVTITADTSTNTVYMELSSLRSEDTAVYYCAFRGGVYWGQGTTVTVSSGGGGSGGGGSGGGGSGGGGSDVVMTQSPLSLPVTLGQPASISCKSSQSLLDSDGKTYLNWLQQRPGQSPRRLISLVSKLDSGVPDRFSGSGSGTDFTLKISRVEAEDVGVYYCWQGTHFPGTFGGGTKVEIKGSHHHHHHHH | binds |
| CAR2 - Soluble scFv (scFv, Soluble His-tagged humanized scFv; also called humanized EGFRvIII scFv variant, VK4-VH1, 4G4S) scFv: DVVMTQSPDSLAVSLGERATINCKSSQSLLDSDGKTYLNWLQQKPGQPPKRLISLVSKLDSGVPDRFSGSGSGTDFTLTISSLQAEDVAVYYCWQGTHFPGTFGGGTKVEIKGGGGSGGGGSGGGGSGGGGSEIQLVQSGAEVKKPGATVKISCKGSGFNIEDYYIHWVQQAPGKGLEWMGRIDPENDETKYGPIFQGRVTITADTSTNTVYMELSSLRSEDTAVYYCAFRGGVYWGQGTTVTVSSGSHHHHHHHH | binds |
| CAR8 - Soluble scFv (scFv, Soluble His-tagged humanized scFv; also called humanized EGFRvIII scFv variant, VK2-VH1, 4G4S) scFv: DVVMTQSPLSLPVTLGQPASISCKSSQSLLDSDGKTYLNWLQQRPGQSPRRLISLVSKLDSGVPDRFSGSGSGTDFTLKISRVEAEDVGVYYCWQGTHFPGTFGGGTKVEIKGGGGSGGGGSGGGGSGGGGSEIQLVQSGAEVKKPGATVKISCKGSGFNIEDYYIHWVQQAPGKGLEWMGRIDPENDETKYGPIFQGRVTITADTSTNTVYMELSSLRSEDTAVYYCAFRGGVYWGQGTTVTVSSGSHHHHHHHH | binds |
